What was measured:
[1] = target: Ku70/80 heterodimer (human (endogenous in HeLa)) (UniProt P12956)
[2] = target: XRCC4-DNA ligase IV (X4L4) complex (human) (UniProt Q13426)
Chain of XRCC4-DNA ligase IV (X4L4) complex (human) (Q13426 whole entry, chain 1 of 2): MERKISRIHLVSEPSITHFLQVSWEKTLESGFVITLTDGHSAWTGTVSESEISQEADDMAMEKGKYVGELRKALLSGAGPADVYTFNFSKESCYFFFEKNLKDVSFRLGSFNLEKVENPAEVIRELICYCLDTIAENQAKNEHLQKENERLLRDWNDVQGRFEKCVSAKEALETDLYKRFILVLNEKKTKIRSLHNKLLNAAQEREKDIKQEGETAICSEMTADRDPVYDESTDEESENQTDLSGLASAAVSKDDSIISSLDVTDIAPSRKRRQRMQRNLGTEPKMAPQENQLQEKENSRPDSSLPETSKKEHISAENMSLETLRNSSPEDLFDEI
Chain of XRCC4-DNA ligase IV (X4L4) complex (human) (P49917 whole entry, chain 2 of 2, further chain): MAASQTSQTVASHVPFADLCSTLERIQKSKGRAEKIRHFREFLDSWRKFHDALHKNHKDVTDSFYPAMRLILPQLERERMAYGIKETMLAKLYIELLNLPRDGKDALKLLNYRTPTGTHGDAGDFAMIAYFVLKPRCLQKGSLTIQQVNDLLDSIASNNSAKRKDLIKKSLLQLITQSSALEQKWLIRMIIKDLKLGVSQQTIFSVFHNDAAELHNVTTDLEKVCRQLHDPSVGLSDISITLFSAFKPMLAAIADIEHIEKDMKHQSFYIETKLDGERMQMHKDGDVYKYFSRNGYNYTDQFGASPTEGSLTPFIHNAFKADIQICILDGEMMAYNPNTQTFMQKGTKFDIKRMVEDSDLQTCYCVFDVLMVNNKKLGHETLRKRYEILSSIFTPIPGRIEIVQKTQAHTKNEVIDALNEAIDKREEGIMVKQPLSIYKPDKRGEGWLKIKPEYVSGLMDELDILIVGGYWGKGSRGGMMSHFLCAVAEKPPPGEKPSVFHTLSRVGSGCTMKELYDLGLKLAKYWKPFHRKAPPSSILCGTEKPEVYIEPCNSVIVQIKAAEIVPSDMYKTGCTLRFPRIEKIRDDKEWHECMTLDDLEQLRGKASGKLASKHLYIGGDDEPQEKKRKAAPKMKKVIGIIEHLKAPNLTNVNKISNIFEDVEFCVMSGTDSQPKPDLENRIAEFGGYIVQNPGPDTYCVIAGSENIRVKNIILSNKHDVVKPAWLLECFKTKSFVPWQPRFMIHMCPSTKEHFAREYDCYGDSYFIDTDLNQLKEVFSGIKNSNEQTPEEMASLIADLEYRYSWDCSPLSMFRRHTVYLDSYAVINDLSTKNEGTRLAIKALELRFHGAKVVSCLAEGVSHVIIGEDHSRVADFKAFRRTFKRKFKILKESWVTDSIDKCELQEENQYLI

Chain of aprataxin and polynucleotide kinase/phosphatase-like factor (APLF), GST tag removed (Q8IW19 whole entry): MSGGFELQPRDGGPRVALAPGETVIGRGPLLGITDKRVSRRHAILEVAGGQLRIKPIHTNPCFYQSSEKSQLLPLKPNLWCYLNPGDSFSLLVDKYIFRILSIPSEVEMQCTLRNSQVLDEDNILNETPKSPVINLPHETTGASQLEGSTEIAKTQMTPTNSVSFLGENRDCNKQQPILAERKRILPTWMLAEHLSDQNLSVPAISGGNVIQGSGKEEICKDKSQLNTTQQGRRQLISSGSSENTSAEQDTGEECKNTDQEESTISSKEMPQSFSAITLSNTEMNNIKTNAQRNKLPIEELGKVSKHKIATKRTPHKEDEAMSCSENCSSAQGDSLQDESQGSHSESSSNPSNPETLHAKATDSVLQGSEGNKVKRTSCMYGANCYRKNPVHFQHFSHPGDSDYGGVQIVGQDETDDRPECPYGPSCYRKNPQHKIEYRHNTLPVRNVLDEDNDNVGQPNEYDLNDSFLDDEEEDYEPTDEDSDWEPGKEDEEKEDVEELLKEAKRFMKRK
Chain of Ku70/80 heterodimer (human (endogenous in HeLa)) (P12956 whole entry, chain 1 of 2): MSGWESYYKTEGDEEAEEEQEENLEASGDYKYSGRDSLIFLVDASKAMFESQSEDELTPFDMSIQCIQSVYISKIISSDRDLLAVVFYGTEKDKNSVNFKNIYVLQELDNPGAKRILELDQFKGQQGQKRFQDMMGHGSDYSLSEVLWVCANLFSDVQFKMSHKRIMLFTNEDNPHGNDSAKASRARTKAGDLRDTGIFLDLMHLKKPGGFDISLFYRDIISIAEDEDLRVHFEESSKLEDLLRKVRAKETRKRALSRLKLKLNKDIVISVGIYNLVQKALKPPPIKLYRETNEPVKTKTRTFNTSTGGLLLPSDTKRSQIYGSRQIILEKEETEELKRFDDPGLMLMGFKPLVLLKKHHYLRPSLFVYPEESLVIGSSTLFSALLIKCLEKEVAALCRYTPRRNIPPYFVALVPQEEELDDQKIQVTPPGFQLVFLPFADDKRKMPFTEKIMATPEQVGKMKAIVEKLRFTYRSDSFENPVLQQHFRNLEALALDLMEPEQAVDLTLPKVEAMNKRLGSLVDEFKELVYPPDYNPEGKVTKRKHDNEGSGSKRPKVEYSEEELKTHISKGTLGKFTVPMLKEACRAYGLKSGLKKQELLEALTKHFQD
Chain of Ku70/80 heterodimer (human (endogenous in HeLa)) (P13010 whole entry, chain 2 of 2, further chain): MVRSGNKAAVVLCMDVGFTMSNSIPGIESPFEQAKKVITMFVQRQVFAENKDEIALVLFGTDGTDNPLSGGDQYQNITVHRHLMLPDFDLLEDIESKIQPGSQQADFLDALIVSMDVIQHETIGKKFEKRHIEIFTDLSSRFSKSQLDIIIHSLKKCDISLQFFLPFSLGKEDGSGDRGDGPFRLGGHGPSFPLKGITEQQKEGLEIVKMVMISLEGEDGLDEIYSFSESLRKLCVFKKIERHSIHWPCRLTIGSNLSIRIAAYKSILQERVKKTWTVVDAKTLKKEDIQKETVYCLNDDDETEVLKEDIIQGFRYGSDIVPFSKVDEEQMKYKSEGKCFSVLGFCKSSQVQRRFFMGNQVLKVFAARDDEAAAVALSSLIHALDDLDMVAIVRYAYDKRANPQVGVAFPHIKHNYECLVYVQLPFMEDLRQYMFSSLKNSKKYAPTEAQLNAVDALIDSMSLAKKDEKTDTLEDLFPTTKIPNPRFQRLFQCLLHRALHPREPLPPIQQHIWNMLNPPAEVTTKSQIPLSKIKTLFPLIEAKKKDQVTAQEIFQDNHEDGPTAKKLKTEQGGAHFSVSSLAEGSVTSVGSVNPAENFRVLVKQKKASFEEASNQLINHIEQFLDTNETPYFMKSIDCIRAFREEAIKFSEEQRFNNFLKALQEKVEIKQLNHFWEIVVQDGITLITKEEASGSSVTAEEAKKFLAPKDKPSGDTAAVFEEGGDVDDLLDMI

Substance: aprataxin and polynucleotide kinase/phosphatase-like factor (APLF), GST tag removed (from UniProt Q8IW19 1-511) (natural protein)
- stoichiometry N [1]: 1
- stoichiometry N [2]: 1

— publication PMC5207133
